The numbers were not newly measured in PMC12583094, “A novel antioxidant peptide from black soybean [Glycine max (L.) Merr.] with verified MPO interaction and multi-scale antioxidant activity” (Frontiers in Nutrition, 2025), which cites them from elsewhere.

For the data set, the target named is MPO (Homo sapiens) (UniProt P05164). Kind of data set: SPR. Background: Surface plasmon resonance follows binding to a sensor surface in real time, without labels.
Chain of MPO (Homo sapiens) (P05164 165-273, chain 1 of 2): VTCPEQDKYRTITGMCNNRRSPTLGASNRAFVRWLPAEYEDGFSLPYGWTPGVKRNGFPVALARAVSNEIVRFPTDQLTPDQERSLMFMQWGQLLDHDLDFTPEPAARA
Chain of MPO (Homo sapiens) (P05164 279-745, chain 2 of 2): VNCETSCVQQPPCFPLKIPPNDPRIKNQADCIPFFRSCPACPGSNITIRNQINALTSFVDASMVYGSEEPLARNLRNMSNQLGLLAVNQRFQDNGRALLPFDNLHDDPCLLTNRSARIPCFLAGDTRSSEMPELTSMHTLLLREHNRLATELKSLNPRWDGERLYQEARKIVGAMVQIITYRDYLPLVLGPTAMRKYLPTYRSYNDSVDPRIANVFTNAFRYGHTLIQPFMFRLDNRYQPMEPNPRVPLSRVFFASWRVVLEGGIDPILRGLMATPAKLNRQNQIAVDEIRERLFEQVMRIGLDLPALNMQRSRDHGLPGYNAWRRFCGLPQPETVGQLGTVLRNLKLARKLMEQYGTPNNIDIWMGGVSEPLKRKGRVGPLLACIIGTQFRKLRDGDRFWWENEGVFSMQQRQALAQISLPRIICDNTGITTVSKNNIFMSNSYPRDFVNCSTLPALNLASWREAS

The Kd is a measure of binding affinity in units of concentration. With SPIN (from UniProt A0A0H3K703), the dissociation constant Kd is 10 nM.
